T1: human APRIL protein (human, UniProt O75888 105-250, limits assumed)
T1 construct: Bought protein; also called recombinant APRIL protein
T1 sequence (looked up): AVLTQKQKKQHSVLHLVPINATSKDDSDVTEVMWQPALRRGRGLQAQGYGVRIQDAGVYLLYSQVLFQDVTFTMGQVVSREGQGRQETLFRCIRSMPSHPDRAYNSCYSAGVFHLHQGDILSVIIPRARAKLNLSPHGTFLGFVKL

T2: cynomolgus BLyS (full length, arginine to histidine at position 132) on CHO-K1 cells (cynomolgus, UniProt Q9Y275 1-285 (human entry))
T2 construct: also called cyno BLyS; CHO-K1 cynoBLyS
T2 chain: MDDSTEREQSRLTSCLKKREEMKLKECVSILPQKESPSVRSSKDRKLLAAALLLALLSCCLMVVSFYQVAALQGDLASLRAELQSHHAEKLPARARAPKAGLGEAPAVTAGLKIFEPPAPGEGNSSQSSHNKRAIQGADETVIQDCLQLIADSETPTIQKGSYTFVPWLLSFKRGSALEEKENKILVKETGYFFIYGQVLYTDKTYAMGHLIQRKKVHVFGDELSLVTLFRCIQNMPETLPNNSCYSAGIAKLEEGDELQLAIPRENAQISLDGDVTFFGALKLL

B1: 97E7B3F2 (antibody, V domains shown)
VH: EVQLQQSGPELVKSGASVKISCKASGYTFTDHKMHWVKQSHGKSLEWIGYISPYNGGTGYNQKFKSKVTLTVDISSSTAYMELRSLTSEDSAVYYCARWGFYDVMDSWGQGTSVTVSS
VL: DVLLTQTPLSLPVSLGDQASISCRSSQTIVHIIGDTYLEWYLQKPGQSPKLLIYKVSNRFSGVPDRFSGSGAGTDFTLKISRVEAEDLGVYYCFQGSHVPRTFGGGTKLEIK
B2: 35E6F7C3 (antibody, V domains shown)
VH: EVQLQQSGAELVKPGASVKLSCTAAGFNIQDTYIHWVKQRPEQGLEWIGRIDPANANTVYDPKFQGKATITADTSSNTAYLQVSSLTSEDTAVYYCASPVITAGFAYWGQGTLVTVSA
VL: QIVLTQSPAIMSASPGEKVTMTCGASSSVNYVHWYQQKSGTSPKRWIYDTSKLASGVPARFSGSGSGTSYSLTISSMEAEDAATYYCQQWTRSPLTFGAGTKVELK
notes: Mouse hybridoma monoclonal antibody purified on Protein G
B3: 20D1B6E9E5 (antibody, V domains shown)
VH: EVQLQQSVAELVRPGASVKLSCTASDFNIKNTYIHWVKQRPEQGLEWIGRIDPVNGNTKYAPKFQDKATIIVDTYSNTAYLQLSSLASEDTAVYYCARWPITTIVATDWYFDVWGTGTTVTVSS
VL: DVLMTQTQLALPVRLGEQASISCRSSQSIVNSNGNTYLEWYLQKPGQSPKLLIYKVSNRFSGVPDRFSGSGSGTDFTLKISRVEAEDLGVYYCFQGSHVPWTFGGGTKLEIK
notes: as for B2

Legend:
[1] = molecular target: T1, human APRIL protein; assay: ELISA, coated APRIL; antibody 66.7 nM
Protocol: (§1) To test whether the BLyS antibody cross-reacted with human APRIL protein, APRIL protein (purchased from R & D Systems) was first diluted to a final concentration of 1.0 μg/mL with PBS, and then 50 μL of which per well was aliquoted into a 96-well ELISA plate, and the plate was subsequently sealed with plastic film and incubated at 4° C. overnight. On the next day the plate was rinsed four times with the plate washing buffer [PBS buffer containing 0.0500 (v/v) Tween20] and a blocking solution [PBS buffer containing 0.05 (v/v) Tween20 and 1 (w/w) BSA] was added, then the protein was blocked at 37° C. for 2 hours. The blocking solution was removed and 100 μL per well of the lead antibodies prepared in Embodiment 1 and 2 were added in. After incubation for 1 hour at 37° C., the plate was rinsed four times with the plate washing buffer [PBS buffer containing 0.05 (v/v) Tween20]. HRP-labeled (horseradish peroxidase) secondary antibody (purchased from Sigma) was added in and incubated at 37° C. for 1 hour. The plate was then rinsed four times with the plate washing buffer [PBS buffer containing 0.050 (v/v) Tween20]. 100 μL of TMB substrate was aliquoted into each well and after incubation at room temperature for 5 minutes, 100 μL of stop solution (1.0 N HCl) was aliquoted into each well. A₄₅₀ₙₘ values were read via an ELISA plate reader (SpectraMax M5e purchased from Molecular Devices) and the results were shown in FIGS. 6A-6B and Table 11. […] As used herein, the IgG control is human IgG and the data in the table is GD number at 450 nm.

[2] = molecular target: T1, human APRIL protein; assay: ELISA, coated APRIL; antibody 0 nM (blank)
Protocol: as §1

[3] = molecular target: T1, human APRIL protein; assay: ELISA, coated APRIL; antibody 13.3 nM
Protocol: as §1

[4] = molecular target: T1, human APRIL protein; assay: ELISA, coated APRIL; antibody 0.00427 nM
Protocol: as §1

[5] = molecular target: T1, human APRIL protein; assay: ELISA, coated APRIL; antibody 0.534 nM
Protocol: as §1

[6] = molecular target: T1, human APRIL protein; assay: ELISA, coated APRIL; antibody 0.0213 nM
Protocol: as §1

[7] = molecular target: T1, human APRIL protein; assay: ELISA, coated APRIL; antibody 0.107 nM
Protocol: as §1

[8] = molecular target: T1, human APRIL protein; assay: ELISA, coated APRIL; antibody 2.67 nM
Protocol: as §1

[9] = molecular target: T3, human BLyS (full length, arginine to histidine at position 132) on CHO-K1 cells (human, UniProt Q9Y275 1-285); assay: flow cytometry, CHO-K1 hBLyS cells, antibody 13.3 nM
T3 construct: also called hBLyS; CHO-K1 hBLyS
Protocol: (§2) The medium was aspirated completely, and the cells were rinsed once with PBS buffer (purchased from Invitrogen) and then treated with cell dispersion solution (TrypLE™ Express Enzyme, purchased from Life technology) and collected. The detailed steps are as follows: the cells were rinsed once with PBS buffer, after counting, the cells were diluted to 2×10⁶ cells/ml with PBS buffer, blocked with 2% (w/w) fetal bovine serum and incubated on ice for 30 minutes. 200 μL of which per well was aliquoted into a 96-well FACS plate and centrifuged at 2000 rpm at 4° C., then each 100 μL of the lead antibodies obtained from Embodiment 1 and 2 were aliquoted into each well and incubated on ice for 1 hour. […] After centrifuged and rinsed 3 times with FACS buffer, cells were suspended with 200 μL of FACS buffer and the results were detected and analyzed by FACS (FACS Calibur, purchased from BD). It was shown in Tables 12-13 that the lead antibody could bind to human BLyS protein on the cell surface and the lead antibody could cross-react with cynomolgus BLyS. The data in the table is MFI, the average fluorescence intensity of the cell population.

[10] = molecular target: T3, human BLyS (full length, arginine to …); assay: flow cytometry, CHO-K1 hBLyS cells, antibody 0.107 nM
Protocol: as §2

[11] = molecular target: T2, cynomolgus BLyS (full length, arginine …); assay: flow cytometry, CHO-K1 cynoBLyS cells, antibody 0.107 nM
Protocol: as §2

[12] = molecular target: T3, human BLyS (full length, arginine to …); assay: flow cytometry, CHO-K1 hBLyS cells, antibody 0.0213 nM
Protocol: as §2

[13] = molecular target: T2, cynomolgus BLyS (full length, arginine …); assay: flow cytometry, CHO-K1 cynoBLyS cells, antibody 2.67 nM
Protocol: as §2

[14] = molecular target: T2, cynomolgus BLyS (full length, arginine …); assay: flow cytometry, CHO-K1 cynoBLyS cells, antibody 0 nM
Protocol: as §2

[15] = molecular target: T3, human BLyS (full length, arginine to …); assay: flow cytometry, CHO-K1 hBLyS cells, antibody 0.00427 nM
Protocol: as §2

[16] = molecular target: T2, cynomolgus BLyS (full length, arginine …); assay: flow cytometry, CHO-K1 cynoBLyS cells, antibody 13.3 nM
Protocol: as §2

[17] = molecular target: T2, cynomolgus BLyS (full length, arginine …); assay: flow cytometry, CHO-K1 cynoBLyS cells, antibody 0.0213 nM
Protocol: as §2

[18] = molecular target: T2, cynomolgus BLyS (full length, arginine …); assay: flow cytometry, CHO-K1 cynoBLyS cells, antibody 0.534 nM
Protocol: as §2

[19] = molecular target: mouse BLyS protein (mouse, UniProt Q9WU72 69-309); assay: cell-based or functional assay
[20] = molecular target: T3, human BLyS (full length, arginine to …); assay: flow cytometry, CHO-K1 hBLyS cells, antibody 66.7 nM
Protocol: as §2

[21] = molecular target: T2, cynomolgus BLyS (full length, arginine …); assay: flow cytometry, CHO-K1 cynoBLyS cells, antibody 66.7 nM
Protocol: as §2

[22] = molecular target: T2, cynomolgus BLyS (full length, arginine …); assay: flow cytometry, CHO-K1 cynoBLyS cells, antibody 0.00427 nM
Protocol: as §2

[23] = molecular target: T3, human BLyS (full length, arginine to …); assay: flow cytometry, CHO-K1 hBLyS cells, antibody 2.67 nM
Protocol: as §2

[24] = molecular target: T3, human BLyS (full length, arginine to …); assay: flow cytometry, CHO-K1 hBLyS cells, antibody 0.534 nM
Protocol: as §2

[25] = molecular target: T3, human BLyS (full length, arginine to …); assay: flow cytometry, CHO-K1 hBLyS cells, antibody 0 nM
Protocol: as §2

Chain of mouse BLyS protein (Q9WU72 69-309): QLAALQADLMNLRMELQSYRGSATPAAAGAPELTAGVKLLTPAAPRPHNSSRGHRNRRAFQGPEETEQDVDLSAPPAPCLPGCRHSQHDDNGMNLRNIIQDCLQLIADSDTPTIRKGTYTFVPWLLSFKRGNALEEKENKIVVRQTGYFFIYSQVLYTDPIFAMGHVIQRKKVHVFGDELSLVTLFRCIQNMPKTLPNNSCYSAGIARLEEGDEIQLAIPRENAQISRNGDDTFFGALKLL
T3 sequence (Q9Y275 whole entry R130H): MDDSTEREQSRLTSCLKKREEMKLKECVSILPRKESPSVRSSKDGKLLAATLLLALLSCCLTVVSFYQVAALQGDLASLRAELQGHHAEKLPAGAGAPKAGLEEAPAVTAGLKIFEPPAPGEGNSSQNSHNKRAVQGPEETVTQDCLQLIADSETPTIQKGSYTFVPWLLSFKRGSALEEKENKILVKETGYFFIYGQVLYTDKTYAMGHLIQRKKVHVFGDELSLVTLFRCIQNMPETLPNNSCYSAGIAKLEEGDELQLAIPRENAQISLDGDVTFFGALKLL

Binder | MFI [9] | MFI [10] | MFI [11] | MFI [12] | MFI [13] | MFI [14] | MFI [15] | MFI [16] | MFI [17] | MFI [18] | mouse B lymphocyte proliferation (OD450 nm), antibody 0 nM [19] | mouse B lymphocyte proliferation (OD450 nm), antibody 0.000256 nM [19] | mouse B lymphocyte proliferation (OD450 nm), antibody 0.00128 nM [19] | mouse B lymphocyte proliferation (OD450 nm), antibody 0.0064 nM [19] | mouse B lymphocyte proliferation (OD450 nm), antibody 0.032 nM [19] | mouse B lymphocyte proliferation (OD450 nm), antibody 0.16 nM [19] | mouse B lymphocyte proliferation (OD450 nm), antibody 0.8 nM [19] | mouse B lymphocyte proliferation (OD450 nm), antibody 4 nM [19] | mouse B lymphocyte proliferation (OD450 nm), antibody 20 nM [19] | mouse B lymphocyte proliferation (OD450 nm), antibody 100 nM [19] | other results
B1 |  |  |  |  |  |  |  |  |  |  |  |  |  |  |  |  |  |  |  |  | OD450 nm [1]: 0.62; OD450 nm [2]: 0.0533; OD450 nm [3]: 0.182; OD450 nm [4]: 0.0535; OD450 nm [5]: 0.0556; OD450 nm [6]: 0.0537; OD450 nm [7]: 0.0705; OD450 nm [8]: 0.0707
B2 | 528 MFI | 110 MFI | 177 MFI | 54.9 MFI | 953 MFI | 20.3 MFI | 39.2 MFI | 1080 MFI | 66.3 MFI | 501 MFI | 2160 OD450 nm | 2160 OD450 nm | 2340 OD450 nm | 2520 OD450 nm | 2430 OD450 nm | 2410 OD450 nm | 2530 OD450 nm | 2520 OD450 nm | 2560 OD450 nm | 2490 OD450 nm | MFI [20]: 609 MFI; MFI [21]: 1130 MFI; MFI [22]: 32.6 MFI; MFI [23]: 437 MFI; MFI [24]: 247 MFI; MFI [25]: 52.4 MFI
B3 | 498 MFI | 194 MFI | 349 MFI | 83.6 MFI | 933 MFI | 19.8 MFI | 46.8 MFI | 978 MFI | 118 MFI | 808 MFI | 2260 OD450 nm | 2090 OD450 nm | 2170 OD450 nm | 2180 OD450 nm | 2380 OD450 nm | 2120 OD450 nm | 2480 OD450 nm | 2200 OD450 nm | 2240 OD450 nm | 1920 OD450 nm | MFI [20]: 535 MFI; MFI [21]: 1030 MFI; MFI [22]: 50.4 MFI; MFI [23]: 474 MFI; MFI [24]: 402 MFI; MFI [25]: 31.8 MFI

— US20210347873A1 (SHANGHAI PHARMAEXPLORER, published 2021)
